Data reported in patent publication US20240400715A1 (VIBRANT PHARMA, published 2024).

B1: 107 (CEA-Knob-Fab-+Hole) (bispecific antibody, human IgG4 S228P, kappa, F234A L235A)
heavy: EVQLVESGGGFVQAGESLTLSCTSSTLTFTPYRMAWYRQAPGKQRDLVADISSGDGRTTNYADFAKGRFTISRDNIKNTVFLRMTNLKPEDTAVYYCNTFVSFVGIARSWGQGTQVTVSSESKYGPPCPPCPAPEAAGGPSVFLFPPKPKDTLMISRTPEVTCVVVDVSQEDPEVQFNWYVDGVEVHNAKTKPREEQFNSTYRVVSVLTVLHQDWLNGKEYKCKVSNKGLPSSIEKTISKAKGQPREPQVYTLPPCQEEMTKNQVSLWCLVKGFYPSDIAVEWESNGQPENNYKTTPPVLDSDGSFFLYSRLTVDKSRWQEGNVFSCSVMHEALHNHYTQKSLSLSLGGGGSGGGGEVKLLESGGGLVQPKGSLKLSCAASGFTFNTYAMNWVRQAPGKGLEWVARIRSKYNNYATYYADSVKDRFTISRDDSQSILYLQMNNLKTEDTAMYYCVRHGNFGNSYVSWFAYWGQGTLVTVSSASTKGPSVFPLAPCSRSTSESTAALGCLVKDYFPEPVTVSWNSGALTSGVHTFPAVLQSSGLYSLSSVVTVPSSSLGTKTYTCNVDHKPSNTKVDKRV
chain: ESKYGPPCPPCPAPEAAGGPSVFLFPPKPKDTLMISRTPEVTCVVVDVSQEDPEVQFNWYVDGVEVHNAKTKPREEQFNSTYRVVSVLTVLHQDWLNGKEYKCKVSNKGLPSSIEKTISKAKGQPREPQVCTLPPSQEEMTKNQVSLSCAVKGFYPSDIAVEWESNGQPENNYKTTPPVLDSDGSFFLVSRLTVDKSRWQEGNVFSCSVMHEALHNRFTQKSLSLSL
light: QAVVTQESALTTSPGETVTLTCRSSTGAVTTSNYANWVQEKPDHLFTGLIGGTNKRAPGVPARFSGSLIGDKAALTITGAQTEDEAIYFCALWYSNLWVFGGGTKVEIKRTVAAPSVFIFPPSDEQLKSGTASVVCLLNNFYPREAKVQWKVDNALQSGNSQESVTEQDSKDSTYSLSSTLTLSKADYEKHKVYACEVTHQGLSSPVTKSFNRGEC
notes: TA1 Fab, C17 VHH, IgG4 Fc KIH
B2: 109 (Knob-Fab+Hole-CEA) (bispecific antibody, human IgG4 S228P, kappa, F234A L235A)
heavy: ESKYGPPCPPCPAPEAAGGPSVFLFPPKPKDTLMISRTPEVTCVVVDVSQEDPEVQFNWYVDGVEVHNAKTKPREEQFNSTYRVVSVLTVLHQDWLNGKEYKCKVSNKGLPSSIEKTISKAKGQPREPQVYTLPPCQEEMTKNQVSLWCLVKGFYPSDIAVEWESNGQPENNYKTTPPVLDSDGSFFLYSRLTVDKSRWQEGNVFSCSVMHEALHNHYTQKSLSLSLGGGGSGGGGSEVKLLESGGGLVQPKGSLKLSCAASGFTFNTYAMNWVRQAPGKGLEWVARIRSKYNNYATYYADSVKDRFTISRDDSQSILYLQMNNLKTEDTAMYYCVRHGNFGNSYVSWFAYWGQGTLVTVSSASTKGPSVFPLAPCSRSTSESTAALGCLVKDYFPEPVTVSWNSGALTSGVHTFPAVLQSSGLYSLSSVVTVPSSSLGTKTYTCNVDHKPSNTKVDKRV
chain: ESKYGPPCPPCPAPEAAGGPSVFLFPPKPKDTLMISRTPEVTCVVVDVSQEDPEVQFNWYVDGVEVHNAKTKPREEQFNSTYRVVSVLTVLHQDWLNGKEYKCKVSNKGLPSSIEKTISKAKGQPREPQVCTLPPSQEEMTKNQVSLSCAVKGFYPSDIAVEWESNGQPENNYKTTPPVLDSDGSFFLVSRLTVDKSRWQEGNVFSCSVMHEALHNRFTQKSLSLSLGGGGSGGGGSEVQLVESGGGFVQAGESLTLSCTSSTLTFTPYRMAWYRQAPGKQRDLVADISSGDGRTTNYADFAKGRFTISRDNIKNTVFLRMTNLKPEDTAVYYCNTFVSFVGIARSWGQGTQVTVSS
light: QAVVTQESALTTSPGETVTLTCRSSTGAVTTSNYANWVQEKPDHLFTGLIGGTNKRAPGVPARFSGSLIGDKAALTITGAQTEDEAIYFCALWYSNLWVFGGGTKVEIKRTVAAPSVFIFPPSDEQLKSGTASVVCLLNNFYPREAKVQWKVDNALQSGNSQESVTEQDSKDSTYSLSSTLTLSKADYEKHKVYACEVTHQGLSSPVTKSFNRGEC
notes: TA1 Fab, C17 VHH, IgG4 Fc KIH
B3: 110 (CEA-Knob+Hole-Fab) (bispecific antibody, human IgG4 S228P, kappa, F234A L235A)
chain: EVQLVESGGGFVQAGESLTLSCTSSTLTFTPYRMAWYRQAPGKQRDLVADISSGDGRTTNYADFAKGRFTISRDNIKNTVFLRMTNLKPEDTAVYYCNTFVSFVGIARSWGQGTQVTVSSESKYGPPCPPCPAPEAAGGPSVFLFPPKPKDTLMISRTPEVTCVVVDVSQEDPEVQFNWYVDGVEVHNAKTKPREEQFNSTYRVVSVLTVLHQDWLNGKEYKCKVSNKGLPSSIEKTISKAKGQPREPQVYTLPPCQEEMTKNQVSLWCLVKGFYPSDIAVEWESNGQPENNYKTTPPVLDSDGSFFLYSRLTVDKSRWQEGNVFSCSVMHEALHNHYTQKSLSLSL
heavy: ESKYGPPCPPCPAPEAAGGPSVFLFPPKPKDTLMISRTPEVTCVVVDVSQEDPEVQFNWYVDGVEVHNAKTKPREEQFNSTYRVVSVLTVLHQDWLNGKEYKCKVSNKGLPSSIEKTISKAKGQPREPQVCTLPPSQEEMTKNQVSLSCAVKGFYPSDIAVEWESNGQPENNYKTTPPVLDSDGSFFLVSRLTVDKSRWQEGNVFSCSVMHEALHNRFTQKSLSLSLGGGGSGGGGSEVKLLESGGGLVQPKGSLKLSCAASGFTFNTYAMNWVRQAPGKGLEWVARIRSKYNNYATYYADSVKDRFTISRDDSQSILYLQMNNLKTEDTAMYYCVRHGNFGNSYVSWFAYWGQGTLVTVSSASTKGPSVFPLAPCSRSTSESTAALGCLVKDYFPEPVTVSWNSGALTSGVHTFPAVLQSSGLYSLSSVVTVPSSSLGTKTYTCNVDHKPSNTKVDKRV
light: QAVVTQESALTTSPGETVTLTCRSSTGAVTTSNYANWVQEKPDHLFTGLIGGTNKRAPGVPARFSGSLIGDKAALTITGAQTEDEAIYFCALWYSNLWVFGGGTKVEIKRTVAAPSVFIFPPSDEQLKSGTASVVCLLNNFYPREAKVQWKVDNALQSGNSQESVTEQDSKDSTYSLSSTLTLSKADYEKHKVYACEVTHQGLSSPVTKSFNRGEC
notes: TA1 Fab, C17 VHH, IgG4 Fc KIH
B4: 108 (Knob-Fab+CEA-Hole) (bispecific antibody, human IgG4 S228P, kappa, F234A L235A)
heavy: ESKYGPPCPPCPAPEAAGGPSVFLFPPKPKDTLMISRTPEVTCVVVDVSQEDPEVQFNWYVDGVEVHNAKTKPREEQFNSTYRVVSVLTVLHQDWLNGKEYKCKVSNKGLPSSIEKTISKAKGQPREPQVYTLPPCQEEMTKNQVSLWCLVKGFYPSDIAVEWESNGQPENNYKTTPPVLDSDGSFFLYSRLTVDKSRWQEGNVFSCSVMHEALHNHYTQKSLSLSLGGGGSGGGGSEVKLLESGGGLVQPKGSLKLSCAASGFTFNTYAMNWVRQAPGKGLEWVARIRSKYNNYATYYADSVKDRFTISRDDSQSILYLQMNNLKTEDTAMYYCVRHGNFGNSYVSWFAYWGQGTLVTVSSASTKGPSVFPLAPCSRSTSESTAALGCLVKDYFPEPVTVSWNSGALTSGVHTFPAVLQSSGLYSLSSVVTVPSSSLGTKTYTCNVDHKPSNTKVDKRV
chain: EVQLVESGGGFVQAGESLTLSCTSSTLTFTPYRMAWYRQAPGKQRDLVADISSGDGRTTNYADFAKGRFTISRDNIKNTVFLRMTNLKPEDTAVYYCNTFVSFVGIARSWGQGTQVTVSSESKYGPPCPPCPAPEAAGGPSVFLFPPKPKDTLMISRTPEVTCVVVDVSQEDPEVQFNWYVDGVEVHNAKTKPREEQFNSTYRVVSVLTVLHQDWLNGKEYKCKVSNKGLPSSIEKTISKAKGQPREPQVCTLPPSQEEMTKNQVSLSCAVKGFYPSDIAVEWESNGQPENNYKTTPPVLDSDGSFFLVSRLTVDKSRWQEGNVFSCSVMHEALHNRFTQKSLSLSL
light: QAVVTQESALTTSPGETVTLTCRSSTGAVTTSNYANWVQEKPDHLFTGLIGGTNKRAPGVPARFSGSLIGDKAALTITGAQTEDEAIYFCALWYSNLWVFGGGTKVEIKRTVAAPSVFIFPPSDEQLKSGTASVVCLLNNFYPREAKVQWKVDNALQSGNSQESVTEQDSKDSTYSLSSTLTLSKADYEKHKVYACEVTHQGLSSPVTKSFNRGEC
notes: TA1 Fab, C17 VHH, IgG4 Fc KIH

Key:
[1] = biological target: T1, human CD3ε/δ (ACRO systems, CDD-H52W1) (human, UniProt P07766 23-126; P04234 22-105); experiment: serum-stability ELISA, Day 1 vs Day 0
T1 construct: bought recombinant heterodimer; also called human CD3 epsilon/delta; Human CD3ε/CD3δ
Method: (§1) The samples to be tested were centrifuged at 4° C. at 12000 rpm for 30 minutes to remove the precipitate. 200 μl of each sample to be tested (0.5 mg/ml) was collected in a 1.5 ml Eppendorf tube. An equal volume of human serum (GEMINI, H2OYOOK) was added, mixed thoroughly, and the mixture was incubated in a 37° C. constant temperature CO₂ incubator. For a total of 10 days, 40 μl samples was aspirated every day and stored at −20° C.
(§2) Enzyme-linked immunosorbent assay (ELISA) was used to test the bispecific antibodies' binding to human CEA and human CD3 epsilon/delta antigen. The steps are as follows: the antigen human CD3ε/δ (ACRO systems, CDD-H52W1) and the recombinant tumor antigen human CEA (CEACAM-5/CD66e, ACRO systems, CE5-H5226) were diluted to 1 μg/ml with PBS, and then added to the 96-well plate at 100 μl per well. The wells were coated overnight at 4° C. After washing 3 times with 0.05% PBST, 200 μl 5% skimmed milk powder was added to each well and incubated at 37° C. for 2 h. After washing 3 times with 0.05% PBST, 100 μl primary antibody sample (10 μg/ml) was added to each well, and incubated at 37° C. for 2 h. After washing 3 times with 0.05% PBST, 100 μl (1:6000) diluted secondary antibody goat anti-human Fc-HRP (sigma, A2170) was added to each well, incubated at room temperature for 1 h. After washing 8 times with 0.05% PBST, 50 μl TMB color developing solution was added to each well, and incubated at room temperature for 10-15 min. 50 μl 1 mM HCl was added to each well to stop the color development. 450 nm Absorbance (OD) was read.
(§3) The binding of antibodies to antigen was calculated according to the following formula: Binding (%)=[(ODdayn−ODb)/(ODday0−ODb)]×100%. ODdayn: experimental well (the protein was stored in the serum for n days); ODday0: control well (the protein was not stored in the serum); ODb: blank well (no primary antibody added).

[2] = biological target: T1, human CD3ε/δ (ACRO systems, CDD-H52W1); experiment: serum-stability ELISA, Day 2 vs Day 0
Method: as §1, §2, §3

[3] = biological target: T1, human CD3ε/δ (ACRO systems, CDD-H52W1); experiment: serum-stability ELISA, Day 5 vs Day 0
Method: as §1, §2, §3

[4] = biological target: T1, human CD3ε/δ (ACRO systems, CDD-H52W1); experiment: serum-stability ELISA, Day 6 vs Day 0
Method: as §1, §2, §3

[5] = biological target: T1, human CD3ε/δ (ACRO systems, CDD-H52W1); experiment: serum-stability ELISA, Day 7 vs Day 0
Method: as §1, §2, §3

[6] = biological target: T1, human CD3ε/δ (ACRO systems, CDD-H52W1); experiment: serum-stability ELISA, Day 9 vs Day 0
Method: as §1, §2, §3

[7] = biological target: T1, human CD3ε/δ (ACRO systems, CDD-H52W1); experiment: serum-stability ELISA, Day 10 vs Day 0
Method: as §1, §2, §3

[8] = biological target: T1, human CD3ε/δ (ACRO systems, CDD-H52W1); experiment: serum-stability ELISA, Day 0 (reference)
Method: as §1, §2, §3

| Binder | Binding % [1] [%] | Binding % [2] [%] | Binding % [3] [%] | Binding % [4] [%] | Binding % [5] [%] | Binding % [6] [%] | Binding % [7] [%] | Binding % [8] [%] |
| --- | --- | --- | --- | --- | --- | --- | --- | --- |
| B1 | 118 | 123 | 122 | 123 | 125 | 118 | 102 | 100 |
| B2 | 97.5 | 88.5 | 88 | 85.7 | 87.6 | 83.3 | 62.1 | 100 |
| B3 | 68.5 | 74.3 | 78.1 | 76.9 | 77.5 | 77 | 56.1 | 100 |
| B4 | 93 | 98 | 96.1 | 98.4 | 98.8 | 98.5 | 66.7 | 100 |
